Laboratory results: publication doi:10.1101/2025.08.01.668158
Changes are numbered by the printed parent chain.

Key:
[1] = target: T1, SpDis3L2 A756R (Schizosaccharomyces pombe, UniProt O14040 1-927, A756R); assay: EMSA
T1 sequence: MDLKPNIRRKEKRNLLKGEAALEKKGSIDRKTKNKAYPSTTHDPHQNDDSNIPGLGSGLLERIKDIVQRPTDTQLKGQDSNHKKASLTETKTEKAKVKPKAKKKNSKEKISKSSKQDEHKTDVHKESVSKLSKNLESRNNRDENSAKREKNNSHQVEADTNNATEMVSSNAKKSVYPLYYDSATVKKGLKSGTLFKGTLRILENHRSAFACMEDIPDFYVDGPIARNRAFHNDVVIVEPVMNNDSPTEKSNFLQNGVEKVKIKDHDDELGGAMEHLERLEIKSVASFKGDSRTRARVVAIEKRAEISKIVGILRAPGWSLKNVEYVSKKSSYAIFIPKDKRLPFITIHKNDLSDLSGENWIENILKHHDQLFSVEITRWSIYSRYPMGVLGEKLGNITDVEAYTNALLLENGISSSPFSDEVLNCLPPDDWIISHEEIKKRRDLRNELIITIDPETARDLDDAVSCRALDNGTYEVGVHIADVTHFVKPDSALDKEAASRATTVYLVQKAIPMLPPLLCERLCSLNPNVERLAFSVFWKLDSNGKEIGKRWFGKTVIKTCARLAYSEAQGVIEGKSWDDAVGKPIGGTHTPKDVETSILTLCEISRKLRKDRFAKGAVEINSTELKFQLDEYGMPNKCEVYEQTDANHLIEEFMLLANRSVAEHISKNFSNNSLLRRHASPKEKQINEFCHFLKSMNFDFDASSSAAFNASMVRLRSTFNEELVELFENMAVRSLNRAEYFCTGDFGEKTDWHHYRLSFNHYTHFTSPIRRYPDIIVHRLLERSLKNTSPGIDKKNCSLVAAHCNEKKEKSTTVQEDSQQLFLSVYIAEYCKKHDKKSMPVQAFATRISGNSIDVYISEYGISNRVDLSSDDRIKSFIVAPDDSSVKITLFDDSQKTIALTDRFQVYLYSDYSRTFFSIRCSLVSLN

[2] = target: T2, SpDis3L2 WT (Schizosaccharomyces pombe, UniProt O14040 1-927); assay: EMSA
T2 sequence: T1 sequence with R756A

[3] = target: T3, SpDis3L2(D461N)ΔN168 (Schizosaccharomyces pombe, UniProt O14040 168-927, D461N); assay: X-ray crystallography
T3 sequence: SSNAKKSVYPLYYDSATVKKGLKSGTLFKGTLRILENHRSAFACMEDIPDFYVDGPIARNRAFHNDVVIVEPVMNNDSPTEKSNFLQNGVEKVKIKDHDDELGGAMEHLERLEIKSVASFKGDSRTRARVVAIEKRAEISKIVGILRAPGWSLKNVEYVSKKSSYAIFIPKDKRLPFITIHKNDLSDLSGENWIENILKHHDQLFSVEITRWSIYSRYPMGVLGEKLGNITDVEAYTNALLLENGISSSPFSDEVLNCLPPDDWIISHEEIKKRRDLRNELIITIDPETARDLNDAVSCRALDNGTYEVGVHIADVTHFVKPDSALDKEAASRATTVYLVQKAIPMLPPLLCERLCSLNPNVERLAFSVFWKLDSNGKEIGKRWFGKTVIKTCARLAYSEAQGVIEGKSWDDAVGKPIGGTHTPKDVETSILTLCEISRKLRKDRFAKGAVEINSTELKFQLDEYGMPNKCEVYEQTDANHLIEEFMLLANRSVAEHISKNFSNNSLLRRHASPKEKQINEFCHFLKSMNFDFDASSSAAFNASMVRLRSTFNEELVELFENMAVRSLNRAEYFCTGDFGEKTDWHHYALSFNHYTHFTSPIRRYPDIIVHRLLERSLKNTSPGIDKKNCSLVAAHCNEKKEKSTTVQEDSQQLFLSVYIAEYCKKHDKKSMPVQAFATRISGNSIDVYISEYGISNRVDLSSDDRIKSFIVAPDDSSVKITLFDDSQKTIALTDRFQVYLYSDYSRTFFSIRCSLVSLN

GUUUUGUAUAGAAAUCAAUGUUUUUUUUUUUUUUUU (ssRNA) [Adh1-U16]: binds [1]; binds [2].

UUUUUUUUUUUUU (ssRNA) [U13]: binds [3].
